The results in this text go back to patent US8501695B2, “Tissue kallikrein for the treatment of diseases associated with amyloid protein” (DiaMedica, Inc., priority 2007, dated 2013).

This data set deals with amyloid fibrils (fAβ) from synthetic human amyloid protein Aβ1-42 or Aβ1-40. Put plainly: In vitro amyloid protein cleavage assay, digestion of fibrils, mass spectroscopy. It counts as biochemical. Conditions: 37° C., 4 h to 5 days, mass spectra FIG. 1. The method, then:
Synthetic human amyloid protein Aβ1-42 or Aβ1-40 was dissolved in dimethyl sulfoxide (DMSO) (Sigma, St. Louis, Mo.) to a concentration of 5 mM, and is then diluted in MilliQ® water to a final concentration of […] immediately prior to use. To prepare amyloid fibrils (fAβ) 5 mM Aβ1-42 or Aβ1-40 in DMSO was diluted in 10 mM HCl to 100 μM (for Aβ1-42) or […] (for Aβ1-40), vortexed for 30 s, and was incubated at 37° C. for 5 days. KLK1 (Sigma) was used for digestion reactions in the following buffers: ECE, 0.1 M MES, 0.1 M NaCl (pH 6.0); IDE, 50 mM Tris, 1 M NaCl (pH 7.5); NEP, 0.1 M MES (pH 6.5); and MMP-9, 50 mM Tris-HCl (pH 7.5), 10 mM CaCl2, 150 mM NaCl, 0.05% Brij 35. It was incubated at 37° C. for 4 h to 5 days. After digestion, the reaction was analyzed by mass spectroscopy. The samples were added to 50 mM glycine (pH 9.2)/2 mM thioflavin T (ThT) (Sigma) at a final volume of up to 2 ml. […] However, in panel C, there is a clear peak at about 2423 M/Z (mass to charge ration), which is an indication of cleavage.

Sequence of amyloid fibrils (fAβ) from synthetic human amyloid protein Aβ1-42 or Aβ1-40 (P05067 672-711 limits assumed): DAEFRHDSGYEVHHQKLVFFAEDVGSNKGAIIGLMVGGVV

B1: tissue kallikrein: serine protease that cleaves kininogen into kallidin; polypeptide SEQ ID NO:1 (Sus scrofa kallikrein 1), KLK1 from Sigma (protein, listed as Sus scrofa)
chain: MWSLVMRLALSLAGTGAAPPIQSRIIGGRECEKDSHPWQVAIYHYSSFQCGGVLVDPKWVLTAAHCKNDNYQVWLGRHNLFENEVTAQFFGVTADFPHPGFNLSLLKNHTKADGKDYSHDLMLLRLQSPAKITDAVKVLELPTQEPELGSTCQASGWGSIEPGPDDFEFPDEIQCVELTLLQNTFCADAHPDKVTESMLCAGYLPGGKDTCMGDSGGPLICNGMWQGITSWGHTPCGSANKPSIYTKLIFYLDWINDTITENP
modifications: 125I label in one form
Regarding B1, the “cleavage of amyloid fibrils” value is “cleaves amyloid fibrils”.
